Source: patent publication US20240093191A1, “COMPOSITIONS AND METHODS FOR TREATING DISEASE ASSOCIATED WITH DUX4 OVEREXPRESSION” (RESEARCH INSTITUTE AT NATIONWIDE CHILDREN'S HOSPITAL, priority 2021, published 2024)

B1: U6.mir-675-2.1: mir-675 construct with modified 5' and 3' flanking sequences (nucleic acid)
DNA: TCTAGAGATCCGACGCCGCCATCTCTAGGCCCGCGCCGGCCCCCTCGCACAGACTTGTGGGAGAAGCTCGGCTACTCCCCTGCCCCGGTTAATTTGCATATAATATTTCCTAGTAACTATAGAGGCTTAATGTGCGATAAAAGACAGATAATCTGTTCTTTTTAATACTAGCTACATTTTACATGATAGGCTTGGATTTCTATAAGAGATACAAATACTAAATTATTATTTTAAAAAACAGCACAAAAGGAAACTCACCCTAACTGTAAAGTAATTGTGTGTTTTGAGACTATAAATATCCCTTGGAGAAAAGCCTTGTTTGCCCCAGGGTCTGGTGCGGAGAGGGCCCACAGTGGACTTGGTGACGCTGTATGCCCTCACCGCTCAGCCCCTGGGGTAACTCCTAATCACACTTTTTT
B2: U6.mir-675F: U6 mir-675 construct with flanking sequences similar to H1.mir-675 (nucleic acid)
DNA: GACGCCGCCATCTCTAGGCCCGCGCCGGCCCCCTCGCACAGACTTGTGGGAGAAGCTCGGCTACTCCCCTGCCCCGGTTAATTTGCATATAATATTTCCTAGTAACTATAGAGGCTTAATGTGCGATAAAAGACAGATAATCTGTTCTTTTTAATACTAGCTACATTTTACATGATAGGCTTGGATTTCTATAAGAGATACAAATACTAAATTATTATTTTAAAAAACAGCACAAAAGGAAACTCACCCTAACTGTAAAGTAATTGTGTGTTTTGAGACTATAAATATCCCTTGGAGAAAAGCCTTGTTTGCCCCAGGGTCTGGTGCGGAGAGGGCCCACAGTGGACTTGGTGACGCTGTATGCCCTCACCGCTCAGCCCCTGGGGAATTCTTCGATTCTGCTTTTTT
B3: U6.mir-675-2.3: mir-675 construct with modified 5' and 3' flanking sequences (nucleic acid)
DNA: TCTAGAGATCCGACGCCGCCATCTCTAGGCCCGCGCCGGCCCCCTCGCACAGACTTGTGGGAGAAGCTCGGCTACTCCCCTGCCCCGGTTAATTTGCATATAATATTTCCTAGTAACTATAGAGGCTTAATGTGCGATAAAAGACAGATAATCTGTTCTTTTTAATACTAGCTACATTTTACATGATAGGCTTGGATTTCTATAAGAGATACAAATACTAAATTATTATTTTAAAAAACAGCACAAAAGGAAACTCACCCTAACTGTAAAGTAATTGTGTGTTTTGAGACTATAAATATCCCTTGGAGAAAAGCCTTGTTTGAATCACACTGCCCCAGGGTCTGGTGCGGAGAGGGCCCACAGTGGACTTGGTGACGCTGTATGCCCTCACCGCTCAGCCCCTGGGGATACTCCTAATCACACTTTTTT
B4: U6.mir-675-2.5: mir-675 construct with modified 5' and 3' flanking sequences (nucleic acid)
DNA: TCTAGAGATCCGACGCCGCCATCTCTAGGCCCGCGCCGGCCCCCTCGCACAGACTTGTGGGAGAAGCTCGGCTACTCCCCTGCCCCGGTTAATTTGCATATAATATTTCCTAGTAACTATAGAGGCTTAATGTGCGATAAAAGACAGATAATCTGTTCTTTTTAATACTAGCTACATTTTACATGATAGGCTTGGATTTCTATAAGAGATACAAATACTAAATTATTATTTTAAAAAACAGCACAAAAGGAAACTCACCCTAACTGTAAAGTAATTGTGTGTTTTGAGACTATAAATATCCCTTGGAGAAAAGCCTTGTTAACGCGAATCACACTGCCCCAGGGTCTGGTGCGGAGAGGGCCCACAGTGGACTTGGTGACGCTGTATGCCCTCACCGCTCAGCCCCTGGGGATACTCCTAATCACACTTTTTT

What follows are molecules tested on DUX4 protein (assay: Western blot of V5-tagged DUX4 protein in co-transfected HEK293 cells). Conditions: CMV.DUX4-FL/CMV.eGFP; HEK293; molar ratio 1 to 3; eGFP normalizer; relative to U6-milacZ; N = 3-8.
Format: cell-based, human
Procedure: Western Blots. […] 50 mM Tris (pH 7.5-8.0), 150 mM NaCl, 0.1% (v/v) SDS, 0.5% (v/v) deoxycholate, 1% (v/v) triton X-100 (Fisher Scientific) and 1 tablet of protease inhibitor (ThermoFisher Scientific) per 10 mL of buffer. The total protein extract was quantified using the DC Protein Assay (Bio-Rad). Twenty microgram samples were separated on 12% SDS-PAGE, transferred to nitrocellulose membrane, using the wet transfer system, and incubated with the following antibodies: mouse monoclonal antibody to V5 (horseradish peroxidase [HRP]-coupled) [1:5,000 in 5% milk TBST buffer (150 mM NaCl, 50 mM Tris-HCl pH 7.4 and 0.1% Tween 20 (Fisher Scientific)), R961-25; Invitrogen); rabbit polyclonal eGFP antibody (1:50,000 in 3% BSA PBS, ab290; Abcam); mouse monoclonal β-actin antibodies (1:60,000; Sigma, St Louis, MO); overnight at 4° C. When using the eGFP antibody, membranes were blocked 30 mins with 3% BSA PBS prior to blotting. eGFP-probed blots were washed five times, 5 min each with 0.5% Tween 20 (Fisher Scientific) in TBST buffer, and then incubated with HRP-coupled goat anti-rabbit secondary antibody (1:250,000 in 3% BSA PBS, 115-035-144; Jackson ImmunoResearch) for 2 hours at room temperature. V5-probed blots were washed five times, 5 min each with 0.1% Tween 20 in TBST buffer. Following washes, blots were developed using Immobilon Western HRP substrate (Millipore) and exposed to film. DUX4.V5, and eGFP quantification was assessed using ImageJ.

Molecule | Average inhibition efficiency (%) of DUX4 protein levels
B1 | 64 ± 4 (N = 8) %
B2 | 64 ± 6 (N = 6) %
B3 | 64 ± 10 (N = 8) %
B4 | 56 ± 6 (N = 5) %

Each molecule was assayed on mir-675-5p (assay: Small-transcript northern blot of mir-675 processing in HEK293 cells). Conditions: HEK293; anti-mir-675-5p biotinylated probe.
Format: cell-based, human
Text: Small-Transcript Northern Blots. […] (SEQ ID NO: 148)).

Molecule | mature mir-675-5p bands on northern blot
B1 | detectable mir-675 mature sequences
B2 | detectable mir-675 mature sequences

Each molecule was assayed on mir-675-5p (assay: ddPCR of all mature mir-675-5p sequences (TaqMan Advanced miRNA cDNA synthesis) in HEK293 cells). Conditions: not given.
Format: cell-based, human
Procedure: Digital Droplet PCR (ddPCR). For mir-675 and mi405 constructs, RNA extraction was carried out as described for QPCR above. For cDNA synthesis, the TaqMan advanced cDNA synthesis kit (Thermo Fisher) was used and cDNA was prepared by following manufacturer's instructions. ddPCR was carried out using 1× ddPCR Supermix for probes (No dUTP) (Bio-Rad), 1× commercially available mir-675 advanced TaqMan probe, or a custom made mi405 advanced TaqMan probe (ThermoFisher) and 50 ng of cDNA. For DUX4 cDNA synthesis, the High-Capacity cDNA Reverse Transcription Kit (Applied Biosystems) was used according to manufacturer's instructions. Within the same cDNA reaction, 1×RT random hexamer primers and 25 pmoles of the Oligo(dT) primer were used to generate cDNA for DUX4 and DUX4-responsive biomarkers and for mouse Rpl13A, used as a reference gene. To quantify DUX4, the ddPCR reaction mixture (20 μL) contained 1× ddPCR Evagreen Supermix (Bio-Rad), 1 μM of forward and reverse DUX4 primers (Sharma et al., J Genet Syndr Gene Ther 2016 August; 7(4):303. doi: 10.4172/2157-7412.1000303. Epub 2016 Aug. 8), and 50 ng of cDNA. To quantify Rpl13A and DUX4-responsive biomarkers (Trim36 and Wfdc3), the 1× ddPCR Supermix for probes (No dUTP) and TaqMan specific probes were used for each of the genes. Droplets were generated using the Automatic Droplet generator QX200 AutoDG (Bio-Rad), the reactions were amplified in a C1000 Touch™ Thermal Cycler with 96-Deep Well Reaction Module (Bio-Rad). Cycling conditions were set up following the QX200 ddPCR Evagreen Supermix protocol. All assays are compatible with an annealing temperature of 58° C. Droplets were then read using the QX200 droplet reader (Bio-Rad). Finally, data were analyzed using the QuantaSoft analysis software (Bio-Rad). For quantification, each reaction of 20 μL was estimated to give at least 10,000 acceptable droplets.
In order to quantify the level of all these mature sequences, the TaqMan advanced miRNA cDNA synthesis method that uses universal reverse transcription (RT) chemistry to synthesize cDNA templates that can be quantified using the TaqMan Advanced miRNA probes was used. In this method, most of the processed mature miRNA sequences were quantified.

Molecule | fold change of all mature mir-675-5p sequences compared to U6.mir-675 [%]
B1 | 142±45
B2 | 133±38
B3 | 114±8
B4 | 153±52
